According to publication PMC1474052:

What was measured:
[1] = target: BPV-1 E1 helicase domain F464A (bovine papillomavirus type 1 (BPV-1)); assay: SEC
[2] = target: BPV-1 E1 helicase domain F464W (bovine papillomavirus type 1 (BPV-1)); assay: SEC
[3] = target: BPV-1 E1 helicase domain H507A (bovine papillomavirus type 1 (BPV-1)); assay: SEC
[4] = target: BPV-1 E1 helicase domain K506A (bovine papillomavirus type 1 (BPV-1)); assay: SEC
[5] = target: BPV-1 E1 helicase domain R505E (bovine papillomavirus type 1 (BPV-1)); assay: SEC
[6] = target: BPV-1 E1 helicase domain W465F (bovine papillomavirus type 1 (BPV-1)); assay: SEC
[7] = target: BPV-1 E1 helicase domain, wild type (bovine papillomavirus type 1 (BPV-1)); assay: SEC
E1HD wild-type = E1HD wild-type (Bovine papillomavirus 1 (BPV-1), UniProt P03116 299-605); assay: EMSA

BPV-1 E1 helicase domain F464A (domain or fragment)
stoichiometry N [1]: 6

BPV-1 E1 helicase domain F464W (domain or fragment)
stoichiometry N [2]: 6

BPV-1 E1 helicase domain H507A (domain or fragment)
stoichiometry N [3]: 6

BPV-1 E1 helicase domain K506A (domain or fragment)
stoichiometry N [4]: 6

BPV-1 E1 helicase domain R505E (domain or fragment)
stoichiometry N [5]: 6

BPV-1 E1 helicase domain W465F (domain or fragment)
stoichiometry N [6]: 6

BPV-1 E1 helicase domain, wild type (domain or fragment)
stoichiometry N [7]: 6

B1: 30mer ssDNA (ssDNA)
DNA: TGCTCTAGAATGCAAACTACTCTGAACGAG
binding result (E1HD wild-type): binds
